From the Immune Epitope Database (IEDB)

Legend:
[1] = target: HLA-A*68:02; test: IEDB peptide-MHC binding, cellular MHC/competitive/fluorescence; ≥ and ≤ were set here for values at or beyond the usual limits of such assays
[2] = target: HLA-A*02:03; test: IEDB peptide-MHC binding, purified MHC/competitive/radioactivity; ≥ and ≤ were set here for values at or beyond the usual limits of such assays
[3] = target: HLA-A*02:02; test: as above
[4] = target: HLA-A*02:01; test: as above
[5] = target: HLA-A*02:06; test: as above
[6] = source organism: Vaccinia virus WR
[7] = source organism: Hepacivirus hominis
[8] = source organism: Mammarenavirus brazilense

Sequence	IC50 [1, 6] [nM]	IC50 [2, 6] [nM]	IC50 [3, 6] [nM]	IC50 [4, 6] [nM]	IC50 [5, 6] [nM]	other results
ALVLLILMTA						IC50 ([1]; source organism: SARS-CoV1): 12500 nM; IC50 ([2]; source organism: SARS-CoV1): 51 nM; IC50 ([3]; source organism: SARS-CoV1): 67 nM; IC50 ([4]; source organism: SARS-CoV1): 325 nM; IC50 ([5]; source organism: SARS-CoV1): 61 nM
WIKDIMTST	9480	12	193	948	136	
GLKIEEIEKV	≥ 70000	6.6	15	65	198	
FLWLLWPVTL						IC50 ([1]; source organism: SARS-CoV1): 5220 nM; IC50 ([2]; source organism: SARS-CoV1): 14 nM; IC50 ([3]; source organism: SARS-CoV1): 2.7 nM; IC50 ([4]; source organism: SARS-CoV1): 0.98 nM; IC50 ([5]; source organism: SARS-CoV1): 28 nM
RLHGLEAFSL						IC50 [1, 7]: 18500 nM; IC50 [2, 7]: 602 nM; IC50 [3, 7]: 35 nM; IC50 [4, 7]: 224 nM; IC50 [5, 7]: 649 nM
KILSDENYL	46600	1170	196	121	28	
MLVNGDDLVV						IC50 [1, 7]: 8980 nM; IC50 [2, 7]: 104 nM; IC50 [3, 7]: 54 nM; IC50 [4, 7]: 56 nM; IC50 [5, 7]: 186 nM
TLLGCWSFVL						IC50 [1, 7]: 26600 nM; IC50 [2, 7]: 864 nM; IC50 [3, 7]: 80 nM; IC50 [4, 7]: 17 nM; IC50 [5, 7]: 250 nM
GMQFDKVYL	17200	277	13	72	1900	
GIAIFNNRNL	11100	2040	5.1	1330	4720	
TLVPVLEKKV	32000	100	112	959	498	
LLVAAGMEA						IC50 ([1]; source organism: SARS-CoV1): 19300 nM; IC50 ([2]; source organism: SARS-CoV1): 17 nM; IC50 ([3]; source organism: SARS-CoV1): 17 nM; IC50 ([4]; source organism: SARS-CoV1): 51 nM; IC50 ([5]; source organism: SARS-CoV1): 117 nM
SINITPDDGL	5890	1230	413	1020	0.34	
ALMTLDDLAI	7700	29	14	0.74	24	
SLVKESMASL	7960	7.8	994	2360	1430	
YLLMHLVSL	7750	1.4	0.18	3.5	0.25	
GLLEWIFRA						IC50 [1, 8]: 53100 nM; IC50 [2, 8]: 226 nM; IC50 [3, 8]: 22 nM; IC50 [4, 8]: 1.2 nM; IC50 [5, 8]: 7.1 nM
ALLRMCALV						IC50 [1, 7]: 6490 nM; IC50 [2, 7]: 65 nM; IC50 [3, 7]: 83 nM; IC50 [4, 7]: 34 nM; IC50 [5, 7]: 417 nM
VLAGYGAGI						IC50 [1, 7]: 14700 nM; IC50 [2, 7]: 18 nM; IC50 [3, 7]: 11 nM; IC50 [4, 7]: 408 nM; IC50 [5, 7]: 2500 nM
VLQAGITRV						IC50 [1, 7]: 35600 nM; IC50 [2, 7]: 12 nM; IC50 [3, 7]: 98 nM; IC50 [4, 7]: 56 nM; IC50 [5, 7]: 393 nM
YLLGDSDSVA	10700	23	2	20	135	
MLDDFSAGA	10500	73	68	0.43	114	
FLLALLSCL						IC50 [1, 7]: 14000 nM; IC50 [2, 7]: 17 nM; IC50 [3, 7]: 2.6 nM; IC50 [4, 7]: 2.8 nM; IC50 [5, 7]: 24 nM
SQMETDFLEL						IC50 ([1]; source organism: SARS-CoV1): 20100 nM; IC50 ([2]; source organism: SARS-CoV1): 597 nM; IC50 ([3]; source organism: SARS-CoV1): 227 nM; IC50 ([4]; source organism: SARS-CoV1): 92 nM; IC50 ([5]; source organism: SARS-CoV1): 21 nM
YLYGIGSAVV						IC50 [1, 7]: 5120 nM; IC50 [2, 7]: 3.5 nM; IC50 [3, 7]: 12 nM; IC50 [4, 7]: 39 nM; IC50 [5, 7]: 285 nM
KLYGYASLT	11000	22	76	326	1990	
ALVSGTATA						IC50 ([1]; source organism: SARS-CoV1): 31300 nM; IC50 ([2]; source organism: SARS-CoV1): 8.1 nM; IC50 ([3]; source organism: SARS-CoV1): 4.6 nM; IC50 ([4]; source organism: SARS-CoV1): 134 nM; IC50 ([5]; source organism: SARS-CoV1): 269 nM
IMRNFLRSI	62700	0.4	485	2060	3920	
MMQNDYGGM	≥ 70000	2740	1080	1280	1660	
